Data: patent US20200048342A1 (INSERM, published 2020)

How the values were obtained:
[1] = biological target: vascular Notch3ECD deposits of TgPAC-Notch3R169C mice; experiment: in vivo target engagement, co-immunolabelling with Alexa 488-conjugated 5E1 for total Notch3ECD deposits, 2 months old TgPAC-Notch3R169C mice
[2] = biological target: T1, Biotinylated NOTCH3 657-848 (human, UniProt Q9UM47 657-848, biotinylated (site not stated)); experiment: Octet RED (BLI), biotinylated NOTCH3 657-848 on streptavidin tips, 5E1 at 333 nM to 3.3 nM; human NOTCH3 (657-848), Octet
T1 construct: also called human NOTCH3 (Octet analysis)
T1 sequence: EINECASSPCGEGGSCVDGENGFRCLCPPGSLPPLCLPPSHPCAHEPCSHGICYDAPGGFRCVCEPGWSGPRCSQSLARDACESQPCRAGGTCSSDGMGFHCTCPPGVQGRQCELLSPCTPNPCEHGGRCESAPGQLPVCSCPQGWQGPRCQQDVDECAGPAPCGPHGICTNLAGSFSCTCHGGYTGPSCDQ
Description: (§1) FIGS. 1A-1B show 5E1 binding to human NOTCH3 using OCTET analysis. (A) Kinetic analysis was performed using the Octet RED technology from ForteBio according to the manufactures instruction. Biotinylated NOTCH3 657-848 was immobilized on streptavidin tips at a level of approximately 3 RU each. (B) Subsequent association and dissociation of 5E1 antibody was analyzed at concentrations in the range from 333 nM to 3.3 nM. Data analysis was subsequently done using the ForteBio Data Analysis 7.0 software (Example 3).
as §1, with “Kinetic” for “FIGS. 1A-1B show 5E1 binding to human NOTCH3 using OCTET analysis. (A) Kinetic”, “each.” for “each. (B)”, “3,3” for “3.3”, “(FIG. 1).” for “(Example 3).”

B1: 5E1 monoclonal antibody (isotype IgG1) (antibody, V domains shown)
VH: EIQLQQSGTVLARPGASVKMSCKASGYTFTSYWMHWVKQRPGQGLEWIGAIYPGNGDTSYNRKFNGKAKLTAVTSTSTAYMEFSSLTNEDSAVYFCTRDYGSSYDYVMDYWGQGTSVTVSS
VL: DIQMTQSPSSLSASLGERVSLTCRASQDIGSSLNWLQQEPDGTIKRLIYATSSLDSGVPKRFSGSRSGSDYSLTISRLESEDFVDYYCLQYISSPLTFGAGTKLELK
notes: Murine monoclonal IgG1 from a hybridoma; also called 5E1 antibody; 5E1 anti-Notch3
[1]
  percentage of target engagement: 100%
[2]
  Kd: 0.055 µM
